How the values were obtained:
Assay type in all cases: cell-based
gene editing with Cas9 = assay: Screen of 322 new SSAP proteins, gene editing activity with Cas9 (Table 5); parameters: Cas9 with SSAP activity: scale not given here
Procedure, shortened: (§1)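 Read-out is gene editing activity. Candidates come from sequence data mining, are made synthetically, and are tested alongside either nuclease-active Cas9 or catalytically dead dCas9.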

gene editing with dCas9 = assay: Screen of 322 new SSAP proteins, gene editing activity with dCas9 (Table 5); parameters: dCas9 with SSAP activity: scale not given here
Procedure, shortened: as §1

[1] = tested on: gene editing with Cas9 and dCas9; assay: Screen of 322 new SSAP proteins, activity across all experiments (Cas9 and dCas9, Table 5); parameters: scale not given here
Procedure, shortened: as §1

Molecule	Cas9 with SSAP activity (gene editing with Cas9)	Cas9 with SSAP activity (normalized) (gene editing with Cas9)	dCas9 with SSAP activity (gene editing with dCas9)	dCas9 with SSAP activity (normalized) (gene editing with dCas9)	Activity across all experiments [1]
SSAP_272: SEQ ID NO: 441; Clostridium cadaveris (protein, listed as Clostridium cadaveris) ATNSSLKNQLSKKENVTIGNTMQGLLNNPKMKKRFEEILDKKAPQYMSSILNLYNGDTSLQKCEPMSVLSSSMIAATMDLPVDKNLGYAWIVPYKNKAQFQMGYKGYIQLALRTGQYKHINAIEIHEGELVNWNPLTEELEIDFTKKESDKIIGYAGYFELLNGFKKSTYWTKTQIENHRKKFSKSDYGWNKDFDAMAIKTVIRNMLSKWGILSIEMQNAYTADENIIKDSFIDDSENVSANIEDLVEADYTVNQDSLESKEEFEGTPLE	0.254	0.626	0.863	0.407	0.558
SSAP_72: SEQ ID NO: 241 (protein) ATNSSLKNQLSKKENVTIGNTMQGLLNNPKMKKRFEEILDKKAPQYMSSILNLYNGDTSLQKCEPMSVLSSSMIAATMDLPVDKNLGYAWIVPYKNKAQFQMGYKGYIQLALRTGQYKHINAIEIHEGELVNWNPLTEELEIDFTKKESDKIIGYAGYFELLNGFKKSTYWTKTQIENHRKKFSKSDYGWNKDFDAMAIKTVIRNMLSKWGILSIEMQNAYTADENIIKDSFIDDSENVSANIEDLVEADYTVNQDSLESKEEFEGTPLE	0.397	0.895	0.705	1.131	0.551
SSAP_277: SEQ ID NO: 446; Nocardia terpenica (protein, listed as Nocardia terpenica) SSIAAAAESAEVTPASIINKYRDDIATVLPPKLRERIDRWIRLAIGAVNSNPELISRVRADQGASMMQALMKCAALGHEPGSGLFHLVPKGSRIEGWEDYKGILQRIDRSGVYARTVIGVVYANDEYSYDQNVDERPRHVRATGDRGEPISSYAYAVYPSGAITTVAEATPEQIASSKSKARGADNAASPWRAPGAPMHRKVAVRLLEKHVATSAEDRREPISRSAANDVVIDATADYYQEP	−1.480	−0.437	−4.435	−0.734	−2.958
SSAP_250: SEQ ID NO: 419; Streptococcus pseudoporcinus (protein, listed as Streptococcus pseudoporcinus) ANQLTVVNTLQSDAVKEKFEAVMGEKANGFVSSVLSVVTNNNLLAKADFNSVYTSAMKAAVLDLPVEPSLGMAYIVPYKGKAQFQIGYKGLIQLAQRSGKVTKLNSGKIYKGQFKSYNALSEELDIDDIYTPKEDEEVVGYFGYMKLSNGFEKITYWTKERVEKHGKKYSQSYDSKFSPWQTNFDAMAEKTVLKSILSTYAPLTIEMQNANDFDNGKNTGIEPLEVKDVTPENDNESLLSDLLEDEPSVDAETGEIMENTELDLDYGSINAK	−4.531	−1.341	−4.273	−1.117	−4.402
SSAP_103: SEQ ID NO: 272; Zymobacter palmae (protein, listed as Zymobacter palmae) TNTVQQQAPQQDQLAQQLQQASGNTPQKKPMPSTIQGMLKDDRFKTQIARALPKHVTPERIMRIALTEINKTPKLKECDPIGLFGSIVQSAQLGLELGGALGHAYLVPYGKQAQFIIGYRGMIDLARRSGQMVSLQAHTVHENDEFNFEYGLNENLRHVPARGERGPMIAVYAVAKLVGGGHQIEVMWKEDVDAVRKSSKAGGSGPWRDHYEEMAKKTAIRRLFKYLPVSVEMQRAVSLDEQAEEGVQDNNVFDGDYTVAEH	−0.682	−0.190	−4.540	−0.705	−2.611
SSAP_82: SEQ ID NO: 251 (protein) ENEVMTQDQAYEVASPFGSSENFQKLFDIGKMFASSSLVPDRYRGKPMDCTIAVDMANRMGVSPMMVMQQLYVVKGNPQWSGQACMSLIRGSSEYKNVRPVYTGKKGEDSWGCYIEAEKKKTGEIVKGTEVTIAMAKAEGWYSKKDKYGNETSKWQTMPELMLAYRAAAFFARVYIPNALMGCAVEGEAEDIMKRAITAEDPFKEDAK	−4.284	−0.776	−4.498	−0.873	−4.391
SSAP_76: SEQ ID NO: 245 (protein) ANELGIFSVDNLNMTTIKQYLDGGGKASDAELVLLINLCKQNNMNPFMKEVYFIKYGNQPAQIVVSRDFYRKRAFQNPNFAGIEVGVIVLNKDGVLEHNEGTFKTHEQELVGAWARVHLKNTEIPVYVAVSYDEYVQMKDGHPNKMWTNKPCTMLGKVAESQALRMAFPAEFSGTYGEEELPEPEKEPREVNGVKEPDRAQIESFDKEDYAARKIEELKEKAQPQKEVVKETGEVIDEITAEDF	−0.308	−0.267	−4.256	−0.591	−2.282
SSAP_313: SEQ ID NO: 482; Pedobacter nototheniae (protein, listed as Pedobacter nototheniae) STEQSQQQTAARVPAKFQEGTVDSILKRVSDFQNTGELVLPANYIPENAVRAAWLMLMETTDRNDKPAIEVCTKESIANAFLEMVTKGLSVVKKQCYFVVYGNKLSLEDSYIGKIAIAKREAGVKEVNAVTIYEGDIFKYENDIETGRKRILEHKQELKNINPDKIVGA	−0.432	−0.643	−4.259	−1.301	−2.345
SSAP_14: SEQ ID NO: 183 (protein) TTALQTLTNKLAERFEMGDGSGLVETLKSSAFAGATVSDAQMIALLVIANQYQLNPWTKEIYAFPGGNGGLTPIVGVDGWVRIINREPQYDGMEFHFTDDYSACTCTIYRKDRSKPIVVTEFMGECKKSSPAWNSHPKRMLRHKAMIQCARLAFGFTGIYDQDEAERIAENEKPPKNITPQNNVVETTAVELISEEQLSQIRQLMQVTGTEEAKILAYIGVQALNQIPKSQAEAVIKKLNLTLDKQNAEKADNGESVGEEIPL	−0.331	−0.351	−4.263	−0.702	−2.297
SSAP_164: SEQ ID NO: 333; Clostridium fimetarium (protein, listed as Clostridium fimetarium) ETIDIKQELASQAQTDSKKEVKLTKAMSIAEMIKAMMPEIKRALPSMITPERFTRIALSALNNTPELQACTPMSFISALLNAAQLGLEINSPLGHAYLIPYKNKGVLECQFQIGYLGLIALAYRNELMQTIQAQCVYENDEFLYEYGLNPKLVHRPATSDRGEPVFFYGLFKMINSGFGFCVMSKQEMDEFARTYSKGLASSFSPWKTSYNEMAKKTVIKQALKYAPIKTDFQKALSTDESIKYAISEDMTEAVNEIVSQNTEVA	−2.221	−0.998	−4.310	−0.557	−3.266
SSAP_58: SEQ ID NO: 227; Pirellula sp. SH-Sr6A (protein, listed as Pirellula sp.) SEATKEAKPETAIAKKPNGIKDWLKSDALKTQIASVAPKHMAPERVMRIALNAVSRTPKLADCTPESFMRCLLDLSSWGLEPDGRHAHLIPYGTECTLVLDYKGLVTLAYRSGWVKKIHADVVFEGDIFVYSLGTVCQHIPWEFRDDANKPEHKGHFRAAYCVVTMADGIEKHEVMTASEIDAIKAKSRSGNSGPWKDHYTEMAKKTVYRRASKWLPLSPEQADAMERDDDRIIDAVSVAVTQRLSKAAMPLIGANETGDTE	−1.710	−0.437	−4.326	−0.647	−3.018
SSAP_232: SEQ ID NO: 401; Lactococcus fujiensis JCM 16395 (protein, listed as Lactococcus fujiensis) KSAPVQARFQEVLGKKSSGFVSSLLTVVNNNNLLKRATPDSIMTAAMKAATLDLPIEPSLGFAYIIPYGQEAQFQIGYKGLIQLALRSGQITGLNSGIVYKSQFISYDPLFEELEIDFMQPEDEVVGYFASMKLSNGFMKVVYWTKARVENHKKRFSKAGAKSPWATDFDAMAQKTVLKAMISKFAPLSQEMQIAVIADNESETLEPKDVTPEQPLISIDEPKENENSQSQISIPEDQAPQQENEEFVEELFPVGQA	−1.056	−0.259	−4.457	−0.721	−2.757
SSAP_291: SEQ ID NO: 460; Nocardia pseudobrasiliensis (protein, listed as Nocardia pseudobrasiliensis) SSIANAANASELTPASIVNRYRDDIAAVLPPKLQARIDRWLRLAIGAVNSNADLVDRVRADQGASMMQTLMKCAALGHEPGSGLFHLVPKGPRIEGWEDYKGVLQRIDRSGVYARVVVEVVHANDDYAYDPNLDDRPQHKRAAADRGEPVSAYAYAVYPNGAVTAVAEATPELIAASKAKARGADNASSPWRAPGAPMHRKVAIRQLEKFVATSAEDMREVAVRNAAPDVEDAPADYYQEP	−4.531	−1.341	−4.458	−1.272	−4.494

Source: patent US20250034594A1, “RNA-GUIDED GENOME RECOMBINEERING AT KILOBASE SCALE” (THE BOARD OF TRUSTEES OF THE LELAND STANFORD JUNIOR …, priority 2021, published 2025)
